T1: Rat RGMa-His (rat) (UniProt D4A188)
T1 sequence: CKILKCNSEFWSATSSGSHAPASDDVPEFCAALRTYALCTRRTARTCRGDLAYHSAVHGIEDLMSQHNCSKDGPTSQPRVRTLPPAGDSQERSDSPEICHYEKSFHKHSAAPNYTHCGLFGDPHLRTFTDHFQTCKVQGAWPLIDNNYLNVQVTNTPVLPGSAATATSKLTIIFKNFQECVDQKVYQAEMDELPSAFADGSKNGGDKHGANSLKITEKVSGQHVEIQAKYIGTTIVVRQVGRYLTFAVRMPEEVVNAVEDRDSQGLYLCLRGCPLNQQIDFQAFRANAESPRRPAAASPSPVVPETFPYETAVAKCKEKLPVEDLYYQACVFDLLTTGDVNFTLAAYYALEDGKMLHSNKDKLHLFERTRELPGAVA

T2: hRGMa-Fc (human, UniProt Q96B86 47-422, limits assumed, biotinylated in the neogenin ELISA and the MSD assay)
T2 construct: also called biot-hRGMa-Fc; biotinylated hRGMa-Fc; not shown: Fc part
T2 sequence: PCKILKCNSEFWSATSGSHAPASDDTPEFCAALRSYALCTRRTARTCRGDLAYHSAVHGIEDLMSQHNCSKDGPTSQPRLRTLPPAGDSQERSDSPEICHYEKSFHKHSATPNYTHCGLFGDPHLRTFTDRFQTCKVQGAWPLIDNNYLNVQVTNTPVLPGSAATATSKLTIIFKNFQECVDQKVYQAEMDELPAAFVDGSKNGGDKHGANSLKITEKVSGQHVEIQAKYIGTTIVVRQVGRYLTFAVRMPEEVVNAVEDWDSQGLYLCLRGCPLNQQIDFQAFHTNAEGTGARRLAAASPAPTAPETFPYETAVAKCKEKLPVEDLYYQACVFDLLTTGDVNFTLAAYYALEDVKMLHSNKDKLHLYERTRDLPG


Assays:
[1] = target: T1, Rat RGMa-His (rat); assay: BIAcore
[2] = target: T2, hRGMa-Fc; assay: HCS (high content analysis) live cell binding inhibition assay: Fc-tagged RGMa complexed with Cy3-labeled anti-Fc antibody, preincubated with the antibody, then added to cells for 30 min at 37 C; blocked: RGMa-Fc binding to SH-SY5Y cells; n=2
Protocol: FIGS. 13A-F and 14A-H illustrate the neutralizing effects of the specified antibodies on RGMa binding to neuronal cells using a live cell binding assay on SH-SY5Y cells and rat hippocampal primary neurons. Fc-tagged RGMa and Cy3-labeled anti-Fc antibodies are complexed at 4° C. for 60 minutes, followed by an incubation of the complex with a blocking antibody at room temperature for 10 minutes. The RGMa-Cy3 +antibody complex is then added to cells together with Hoechsts 33342 for 30 minutes at 37° C. to allow binding onto the cells. The cell are then washed twice in culture medium and fixed with PFH. Cell imaging is performed with the BD Pathway and images analyzed with the Definiens Architect software.

Row | kon [1] [M⁻¹ s⁻¹] | IC50 (read off the curve) [2] [nM] | Binder
1 | 22000 |  | AE12-1-V (antibody, V domains shown) VH: EVQLVQSGAEVKKPGASVKVSCKASGYTFTSHGISWVRQAPGQGLDWMGWISPYSGNTNYAQKLQGRVTMTTDTSTSTAYMELSSLRSEDTAVYYCARVGSGPYYYMDVWGQGTLVTVSS VL: QSALTQPRSVSGSPGQSVTISCTGTSSSVGDSIYVSWYQQHPGKAPKLMLYDVTKRPSGVPDRFSGSKSGNTASLTISGLQAEDEADYYCVSYAGTDTLFGGGTKVTVL
2 |  | ~10 | AE12-6 (antibody, V domains shown, lambda light chain) VH: EVQLVQSGAEVKKPGASVKVSCKASGYIFTNYDIAWVRQAPGQGLEWMGWMNPDSGNTGFVQKFKGRVTATSNTDITTAYMELSSLTSEDTAVYYCARDRFGSGYDLDHWGQGTLVTVSS VL: SYELTQPPSVSVAPGQTARITCGGNNIGSKSVHWYQQKPGQAPVLVVYDDSDRPSGIPERFSGSNSGNTATLTISRVEAGDEADYYCQVWGSSSDHYVFGTGTKVTVL

Reference: US20190276526A1 (AbbVie / Abbott, published 2019)
